Experimental findings from FireProtDB (doi:10.1021/bi049320b) are described below.

The chains are these.
B1: Barstar, P11540 (parent)
chain: MKKAVINGEQIRSISDLHQTLKKELALPEYYGENLDALWDCLTGWVEYPLVLEWRQFEQSKQLTENGAESVLQVFREAKAEGCDITIILS

The data set covers variants of B1. To be noted: Bacillus amyloliquefaciens, pH 8, 25 °C, Urea, Fluorescence, Tris-HCl 30 mM, structure 1BTA, whole UniProt chain shown.

With K22A, the “ddG of mutation (higher = less stable)” value amounted to 1.4 kcal/mol, the denaturant m value amounted to 1.02 kcal/mol/M and the unfolding free energy stood at 3.4 kcal/mol. For the setting “KCl 0.5 M”, the “ddG of mutation (higher = less stable)” value stood at 0.8 kcal/mol, the denaturant m value stood at 1.1 kcal/mol/M and the unfolding free energy turned out to be 5 kcal/mol. Further, for the setting “KCl 1 M”, the “ddG of mutation (higher = less stable)” value came to 0.8 kcal/mol, the denaturant m value was 1.11 kcal/mol/M and the unfolding free energy worked out at 6.1 kcal/mol.
For the variant K22Q, the “ddG of mutation (higher = less stable)” value was 0.7 kcal/mol, the denaturant m value is 1.32 kcal/mol/M and the unfolding free energy worked out at 4.1 kcal/mol. Moreover, for the setting “KCl 0.5 M”, the “ddG of mutation (higher = less stable)” value was 1.2 kcal/mol, the denaturant m value was 1.18 kcal/mol/M and the unfolding free energy was 4.6 kcal/mol. For the same variant, under “KCl 1 M”, the “ddG of mutation (higher = less stable)” value is 1.2 kcal/mol, the denaturant m value worked out at 1.12 kcal/mol/M and the unfolding free energy is 5.7 kcal/mol.
As to K61L, the “ddG of mutation (higher = less stable)” value was -1 kcal/mol, the denaturant m value came to 1.3 kcal/mol/M and the unfolding free energy turned out to be 5.8 kcal/mol. Also, where the note is “KCl 0.5 M”, the “ddG of mutation (higher = less stable)” value was -0.4 kcal/mol, the denaturant m value turned out to be 1.17 kcal/mol/M and the unfolding free energy worked out at 6.2 kcal/mol. Also, where the note is “KCl 1.0 M”, the “ddG of mutation (higher = less stable)” value was -0.4 kcal/mol, the denaturant m value was found to be 1.16 kcal/mol/M and the unfolding free energy is 7.3 kcal/mol.
For K61E, the “ddG of mutation (higher = less stable)” value is 0.6 kcal/mol, the denaturant m value worked out at 1.44 kcal/mol/M and the unfolding free energy came out at 4.2 kcal/mol. Further, where the note is “KCl 0.5 M”, the “ddG of mutation (higher = less stable)” value came out at 1.3 kcal/mol, the denaturant m value is 1.19 kcal/mol/M and the unfolding free energy is 4.5 kcal/mol. Further, where the note is “KCl 1.0 M”, the “ddG of mutation (higher = less stable)” value stood at 1.4 kcal/mol, the denaturant m value was 1.13 kcal/mol/M and the unfolding free energy stood at 5.5 kcal/mol.
Consider K23Q, for which the “ddG of mutation (higher = less stable)” value stood at 0.5 kcal/mol, the denaturant m value stood at 1.22 kcal/mol/M and the unfolding free energy was 4.3 kcal/mol. Further, for the setting “KCl 0.5 M”, the “ddG of mutation (higher = less stable)” value turned out to be 1.1 kcal/mol, the denaturant m value came to 1.12 kcal/mol/M and the unfolding free energy came out at 4.7 kcal/mol. For the same variant, for the setting “KCl 1.0 M”, the “ddG of mutation (higher = less stable)” value was 1.1 kcal/mol, the denaturant m value was 1.14 kcal/mol/M and the unfolding free energy worked out at 5.8 kcal/mol.
As for K79Q, the “ddG of mutation (higher = less stable)” value was -0.4 kcal/mol, the denaturant m value worked out at 1.14 kcal/mol/M and the unfolding free energy worked out at 5.2 kcal/mol. Further, under “KCl 0.5 M”, the “ddG of mutation (higher = less stable)” value is -0.3 kcal/mol, the denaturant m value worked out at 1.14 kcal/mol/M and the unfolding free energy came to 6.1 kcal/mol. Also, under “KCl 1 M”, the “ddG of mutation (higher = less stable)” value was -0.3 kcal/mol, the denaturant m value came out at 1.14 kcal/mol/M and the unfolding free energy is 7.2 kcal/mol.
For K79A, for the setting “KCl 0.5 M”, the “ddG of mutation (higher = less stable)” value was -0.2 kcal/mol, the denaturant m value was 1.18 kcal/mol/M and the unfolding free energy was 6 kcal/mol. Also, for the setting “KCl 1 M”, the “ddG of mutation (higher = less stable)” value was -0.1 kcal/mol, the denaturant m value was 1.16 kcal/mol/M and the unfolding free energy came out at 7 kcal/mol.
For the variant E58K, the “ddG of mutation (higher = less stable)” value amounted to 0.4 kcal/mol, the denaturant m value is 1.25 kcal/mol/M and the unfolding free energy was determined as 4.4 kcal/mol. Under “KCl 0.5 M”, the “ddG of mutation (higher = less stable)” value worked out at 0.9 kcal/mol, the denaturant m value was determined as 1.14 kcal/mol/M and the unfolding free energy turned out to be 4.9 kcal/mol. In addition, under “KCl 1.0 M”, the “ddG of mutation (higher = less stable)” value was 0.9 kcal/mol, the denaturant m value amounted to 1.16 kcal/mol/M and the unfolding free energy was determined as 6 kcal/mol.
With R76L, the “ddG of mutation (higher = less stable)” value is -0.7 kcal/mol, the denaturant m value is 1.13 kcal/mol/M and the unfolding free energy was determined as 5.5 kcal/mol. Also, under “KCl 0.5 M”, the “ddG of mutation (higher = less stable)” value is -0.7 kcal/mol, the denaturant m value turned out to be 1.13 kcal/mol/M and the unfolding free energy worked out at 6.5 kcal/mol. For the same variant, for the setting “KCl 1.0 M”, the “ddG of mutation (higher = less stable)” value was -0.7 kcal/mol, the denaturant m value came to 1.15 kcal/mol/M and the unfolding free energy came to 7.6 kcal/mol.
Turning to R76Q, for the setting “KCl 0.5M”, the “ddG of mutation (higher = less stable)” value turned out to be 0.4 kcal/mol, the denaturant m value worked out at 1.15 kcal/mol/M and the unfolding free energy came out at 5.4 kcal/mol. Where the note is “KCl 1 M”, the “ddG of mutation (higher = less stable)” value turned out to be 0.4 kcal/mol, the denaturant m value was found to be 1.17 kcal/mol/M and the unfolding free energy worked out at 6.5 kcal/mol.
